We go through 4 molecules from US20200317792A1 (INSMED, published 2020).

B1: CoDAH design C5 VH/C1 Vκ (antibody, V domains shown)
VH: QVQLQQSGPGLVKPSETLSITCTVSGFSLTNYGVHWVRQSPGKGLEWLGVIWSGGNTDYNTPFTSRLTINKDNSKSQVFFKMNSLQSNDTAVYYCARALTYYDYEFAYWGQGTLVTVSA
VL: DIVLTQSPDFQSVTPKEKVTITCRASQSIGTNIHWYQQKPDQSPKLLIKYASESISGVPSRFSGSGSGTDFTLTINSVESEDIADYYCQQNNNWPTTFGAGTKLELKR
notes: Cross pair; Measured as full length IgG
B2: CoDAH design C5 VH/C2 Vκ (antibody, V domains shown)
VH: QVQLQQSGPGLVKPSETLSITCTVSGFSLTNYGVHWVRQSPGKGLEWLGVIWSGGNTDYNTPFTSRLTINKDNSKSQVFFKMNSLQSNDTAVYYCARALTYYDYEFAYWGQGTLVTVSA
VL: DIVLTQSPVFLSVTPGEKVTITCRASQSIGTNIHWYQQKPDQSPKLLIKYASESISGVPSRFSGSGSGTDFTLTINSVESEDIADYYCQQNNNWPTTFGAGTKLELKR
notes: as for B1
B3: CoDAH design C5 VH/C5 Vκ (antibody, V domains shown)
VH: QVQLQQSGPGLVKPSETLSITCTVSGFSLTNYGVHWVRQSPGKGLEWLGVIWSGGNTDYNTPFTSRLTINKDNSKSQVFFKMNSLQSNDTAVYYCARALTYYDYEFAYWGQGTLVTVSA
VL: EIVLTQSPVILSVSPGERVTFSCRASQSIGTNIHWYQQKTDQSPRLLIKYASESISGIPSRFSGSGSGTDFTLTINSVESEDIADYYCQQNNNWPTTFGQGTKLELKR
notes: Pareto optimal design; Measured as full length IgG
B4: CoDAH design C5 VH/C3 Vκ (antibody, V domains shown)
VH: QVQLQQSGPGLVKPSETLSITCTVSGFSLTNYGVHWVRQSPGKGLEWLGVIWSGGNTDYNTPFTSRLTINKDNSKSQVFFKMNSLQSNDTAVYYCARALTYYDYEFAYWGQGTLVTVSA
VL: DILLTQSPVILSVSPGERVTFSCRASQSIGTNIHWYQQKPDQSPKLLIKYASESISGVPSRFSGSGSGTDFTLTINSVESEDIADYYCQQNNNWPTTFGAGTKLELKR
notes: as for B1

The assay addresses T1, recombinant, soluble his tagged human EGFR (Sino Biologicals) (human, UniProt P00533 25-645).
T1 construct: extracellular domain; also called human epidermal growth factor receptor; not shown: his tag
Description: BLI (ForteBio Octet Red), IgG on protein A tips, 100 nM soluble EGFR.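 Also: antibody binding to EGFR read out as on and off rates plus equilibrium affinity, calculated with the Octet instrument software.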
In the case of B1, the binding result is reported as “binds”. For B2 the value was “binds”; for B3, “binds”.

For the molecule B4, the binding result is recorded as “binds”.
